± gives the standard error. For some of these results: Variants at the floor of the assay were thinned out.
B1: glmS ribozyme (parent)
chain: AUAAAAGCGCCAGAACUACAGAAAUGUAGUUGACGAGGAGGAGGUUUAUCGAAUUUUCGGCGGAUGCCUCCAAA

Legend:
Conditions in all cases: with glucosamine-6-phosphate
glucosamine-6-phosphate [1] = variants of: B1; assay: kcat; higher = faster cleavage; RNA array
Method in brief: (§1)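 Weighted Michaelis–Menten fits across concentrations supplied kcat and KM, based on kobs from one- or two-exponential decay fits to normalised per-tile medians. The data came from barcoded ribozyme variants transcribed in situ by E. coli RNA polymerase on sequenced MiSeq chips and tracked at 37 °C by a hybridised Cy3 probe. Glucosamine-6-phosphate (40 μM to 10 mM) in HEPES/KCl/Mg(OAc)2 buffer was flowed in.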

glucosamine-6-phosphate [2] = variants of: B1; assay: KM; higher = weaker cofactor use; RNA array
Method in brief: as §1

glucosamine-6-phosphate [3] = variants of: B1; assay: self-cleavage kobs at 640 uM GlcN6P; higher = faster cleavage; RNA array
Method in brief: as §1

glucosamine-6-phosphate [4] = variants of: B1; assay: self-cleavage kobs at 2500 uM GlcN6P; higher = faster cleavage; RNA array
Method in brief: as §1

glucosamine-6-phosphate [5] = variants of: B1; assay: self-cleavage kobs at 10000 uM GlcN6P; higher = faster cleavage; RNA array
Method in brief: as §1

glucosamine-6-phosphate [6] = variants of: B1; assay: self-cleavage kobs at 160 uM GlcN6P; higher = faster cleavage; RNA array
Method in brief: as §1

glucosamine-6-phosphate [7] = variants of: B1; assay: self-cleavage kobs at 40 uM GlcN6P; higher = faster cleavage; RNA array
Method in brief: as §1

| Variant | kcat (glucosamine-6-phosphate [1]) [s⁻¹] | KM (glucosamine-6-phosphate [2]) [µM] | self-cleavage kobs at 640 uM GlcN6P (glucosamine-6-phosphate [3]) [s⁻¹] | self-cleavage kobs at 2500 uM GlcN6P (glucosamine-6-phosphate [4]) [s⁻¹] | self-cleavage kobs at 10000 uM GlcN6P (glucosamine-6-phosphate [5]) [s⁻¹] | self-cleavage kobs at 160 uM GlcN6P (glucosamine-6-phosphate [6]) [s⁻¹] | self-cleavage kobs at 40 uM GlcN6P (glucosamine-6-phosphate [7]) [s⁻¹] |
| --- | --- | --- | --- | --- | --- | --- | --- |
| AUAAAAGCGCCAGAACUACAGAAAUGUAGUUGACGAGGAGGAGGUUUAUCGAAUUUUCGGCGGAAUCCUCCAAA [U65A G66U] | 0.00046 ± 4.8e-05 | 3170 ± 620 | 7.65e-05 ± 9.6e-06 | 0.00023 ± 3.3e-05 | 0.000342 ± 3.1e-05 |  |  |
| AUAAAAGCGCCAGAACUACAGAAAUGUAGUUGACGAGGAGGAGGUUUAUCGAAUUUUCGGCGGAACCCUCCAAA [U65A G66C] | 0.000476 ± 5.1e-05 | 1400 ± 320 | 0.000156 ± 3.2e-05 | 0.000267 ± 8.2e-05 | 0.000436 ± 8.9e-05 |  |  |
| AUAAAAGCGCCAGAACUACAGAAAUGUAGUUGACGAGGAGGAGGUUUAUCGAAUUUUCGGCGGAAGGCUCGAAA [U65A C67G C71G] | 2.24e-05 ± 6.2e-06 |  |  |  |  |  |  |
| AUAAAAGCGCCAGAACUACAGAAAUGUAGUUGACGAGGAGGAGGUUUAUCGAAUUUUCGGCGGAAGCCUGCAAA [U65A C70G] | 7.88e-05 ± 4.1e-06 | 66.3 ± 25 | 7.89e-05 ± 1e-05 | 7.95e-05 ± 1e-05 | 7.32e-05 ± 7.6e-06 | 5.95e-05 ± 1.2e-05 |  |
| AUAAAAGCGCCAGAACUACAGAAAUGUAGUUGACGAGGAGGAGGUUUAUCGAAUUUUCGGCGGAAAGCUCUAAA [U65A G66A C67G C71U] | 8.39e-05 ± 1.9e-05 |  |  | 8.49e-05 ± 2.1e-05 | 6.69e-05 ± 1.9e-05 |  |  |
| AUAAAAGCGCCAGAACUACAGAAAUGUAGUUGACGAGGAGGAGGUUUAUCGAAUUUUCGGCGGAAGCCGCCAAA [U65A U69G] | 5.5e-05 ± 1.5e-05 |  | 4.35e-05 ± 1.4e-05 | 8.3e-05 ± 1.9e-05 |  | 7.34e-05 ± 1.9e-05 |  |
| AUAAAAGCGCCAGAACUACAGAAAUGUAGUUGACGAGGAGGAGGUUUAUCGAAUUUUCGGCGGAAGCCUCCAAA [U65A] | 0.0061 ± 0.001 | 2260 ± 500 | 0.00117 ± 3.3e-05 | 0.00375 ± 0.00015 | 0.00502 ± 0.00012 | 0.000336 ± 1.5e-05 | 0.00012 ± 2.4e-06 |
| AUAAAAGCGCCAGAACUACAGAAAUGUAGUUGACGAGGAGGAGGUUUAUCGAAUUUUCGGCGGAAGCCUCGAAA [U65A C71G] | 0.000477 ± 0.00013 | 1710 ± 720 | 0.000124 ± 1.6e-05 | 0.000382 ± 9.3e-05 | 0.000383 ± 8.9e-05 | 4.31e-05 ± 1.1e-05 |  |

Source: the supplement of paper PMC7125110
